The numbers were not newly measured in article PMC3583350, which cites them from elsewhere.

The term Kd denotes the equilibrium constant for the complex coming apart.

The data set concerns the target FcεRIα ECD (Homo sapiens) (UniProt P12319).
UniProt P12319, sequence (P12319 26-205): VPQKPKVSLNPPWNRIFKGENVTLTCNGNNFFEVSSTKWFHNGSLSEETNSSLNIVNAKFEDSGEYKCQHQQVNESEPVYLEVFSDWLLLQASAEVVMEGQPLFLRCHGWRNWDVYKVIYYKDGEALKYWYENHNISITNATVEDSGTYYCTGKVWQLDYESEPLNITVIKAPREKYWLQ

Turning to IgE-Fc Fc (from UniProt P01854), the dissociation constant Kd is 1 nM.
